Assay: yeast display, Sf9 membrane polyspecificity reagent, FACS + sequencing; frameworks hold sequencing errors
Method in brief: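 Genes from sorted yeast were amplified by colony PCR, read by MiSeq 2 × 250 sequencing and filtered on CDR length. These cells carried a synthetic nanobody library in Saccharomyces cerevisiae BJ5465 and were sorted by FACS into low and high (top ~1%) gates on anti-HA and streptavidin fluorescence. Polyreactivity is labelled according to the gate of origin.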

| Sequence | polyreactivity (PSR sort gate) |
| --- | --- |
| QVQLVESGGGLVQAGGSLRLSSPASGFTFYYKGMGWYRQAPGKERELVATITSGGSTYYADSVKGRFTISSDNAKNTVYLQMNSLKPEDTAVYYCNRRISWRYVPTYDYWGQGTQVTVSS | high polyreactivity |
| QVQLVESGGGLVQAGGSLRLSCAASGRIFLVYAMGRYRQAPGKERELVAAITSDGRTYYADSVKGRFTISRDNAKNTVYLQMNSLKPEDTAVYYCAADRYGAGYLYWPYDYWGQGTQVTVSS | low polyreactivity |
| QVQLVESGGGLVQAGVSLRLSCAASGSSLARNAMGWYRQAPGKERELVAAISRRSGSTYYADSVKGRFTFSRDNAKNTVYLQMNSLKPEDTAVYYCAKLGIVHQYDYWGQGTQVTVSS | low polyreactivity |
| QVQLVESGGGLVQEGGSLRLSCAASGRIFYNYPMGWYRQAPGKEREFVAAISGSGGSTYYADSVKGRFTISRDIAKNTVYLQMKSLKPEDTAVYYCSTSGPQYYSRNFDYWGQGTQVTVSS | low polyreactivity |
| QVQLVESGGGLVQAGGSLRLSCAASGRIFSYYGMGWYRQAPGKERELVAAISTGGNTNYADSLKGRFTISRDNAKNTVYLQMNSLKPEDTAVYYCAAGFPYKFTYVCGYNHWGQGTQVTVSS | low polyreactivity |
| QVQLVESGGRLVQAGGSLRLSCAPSGFMFADYMGWYRQAPGKERALVASISSTGSSTYADSVKGRFTITRDNAKNTVYLPMNSLKPEDTAVYDCAATGVWYSSNDYASEYDYWGQGTQVTVSS | high polyreactivity |
| QVQLVESGGGLVQAGRSLRLSCAASGRTLHQYDMGWFRQAPGKEREFVAVIDSSDGSTYYADSVKGRFTISRDNVKNTVYLQMNSLKPEDSAVYYCLGGYYYLQYDYWGQGTQVTVSS | low polyreactivity |
| QVQLVESGGGLVQAGGSLRISCAASGSTFDGYAMGWYRQAPGKERELVAAITRGGSTNYADSVKGRFTISRDNAKNTVYLQMNSLKPEDTAVYYCNARLWKRYPYDGYGYWGQGTQVTVSS | high polyreactivity |
| QVQLVESGGGLVQAGGSLRLSCAASGSIFKQYDMGWYRQAPGKERDLVAAITASDGSTYYADSVKGRFTISRDNAMNTVYLQMNSLKPEDTAVYFCAADGGVAWGYGYCGQGTQVTVSS | low polyreactivity |
| QVQLVESGGGLVQAGGSLRLSCAASGSIFSQYAMGWYRQAPGKERELVAAISSSGDSTNYADSVKGRFTISRDNAKNTVYLQMNSLKPEDTAVYYCNADTYWYRDSRYDYWGQGTQVTVSS | low polyreactivity |
| QVQLVESGGGLVQAGGSLRLSCAASGISYTSYAMGWYRQAPGKERELVAAISSSGGSTYYADSVKGRFTISRDNAKNTVYLQMNSLKPEDTAVYYCIARPRSRSPRVEYDYWGQGTQVTVSS | high polyreactivity |
| QVQLVESGGGLVQAGGSLRLSCAASGRTFFLYAMGWYRQAPGKEREFVATISYGGGSTYYADSVKGRFTISRDNAKNTVYLQMNSLKPEDTAVYYCNALNTSQYAEGTSDYDGNMGYWGQGTQVTVSS | low polyreactivity |
| QVQLVESGGGLLQAGGSLRLSCAASGLTFVDYAMGWYRQAPGKERELVAAITTSGGSITYYSDSVKGRFTISRDNAKNTVYLQMNSLKPEDTAVYSCNADYGIYTDSFRGPDYESWGQGTQVTVSS | low polyreactivity |
| QVQHVESGGGLVQAGGSLRLSCAASGRTFYSYAMGWYRQAPGKERELVAAINSGGTTYYADSVKGRFTISRDNAKNTVYLEINSLKPEDTAVYYCAAVSYLFLYQGYPIAYPMYYWGQGTQVTVSS | low polyreactivity |
| QVQLVESGGGLVQAGGSLRFSCAASGSTYYYNAMGWDRQAPGKERELVASISWSGGSTRYADSVKGRFTISRDNAKNTVYLQMNSLKPEDTAVYYCAARYILSKYGSGVRYNYWGQGTQVSVSS | high polyreactivity |
| QVQLVESGGGLVQAGFSLRLSCAASGSIFFIYDKGWYRQAPGKERELVADITSGGGSTFYADSVKGRFTISRDNAKNTVYLQMNSLKPEDTAVYYCATDDHDQPGGQLYISEVNYWGQGTQVTVSS | low polyreactivity |
| QVQLVESGGGLVQAGGSLRLSCAASGSIYGDNAMGWYRQAPGKERELVAAINYNGGRTYYADSVKGRFTISRDTAKNTVYLQMNSLKPEDTAVYSCAKDNYQAPVQQYPFDYWGQGTQVTVSS | low polyreactivity |
| QVQLVESGGGLVQAGASLRLSSAASGSTFSRYAMGWYRQAPGKEREFVADITFRTSSTNYADSVKGRFTISRDNAKNTVYLQMNSLKPEDTAVYDCAADVIFTWLAYSTEYDYWGQGSQVTVSS | low polyreactivity |
| QVQLVESGGGLVQAGGSLRLSCAASGFTFGFYAMGWSRQATGKERELVARISYSGGSTYYADSVKGRFTISRDNAKNTVYLQMNSLKPEDTAVYYCNRGYRRLQEDYWGQGTQVTVSS | high polyreactivity |
| QVQLVESGGGLVQAGGSLRLSCAASGRIFYYYAMGWYRQAPGKESELVAAISGGGGRTYYADSVKGRFTISRDNAKHTVYLQMNSLKPEDTAVYYCNADYFYRTVNQRYDYWGQGTQVTVSS | high polyreactivity |
| QVQLVESGGGLVQAGGSLRLSCAASGSIFQSNAMGWSRQAPGKERELVAAISSRGGRTYYADSVKGRFTISRDNAKYTVYLQLNSLKPEDTAVYYCAVVPFTEHDYWGQGTQVTVSS | high polyreactivity |
| QVQLVESGGCLVQAGGSLRLSCAASGSSFSRYTMGWYSQAPGKERELVAVISDSSGRTYYADSVKGRFTISRDTAKNTVYLQMNSLKPEDTAVYYCAAEYSDIYEYCGQGTQVTVSS | low polyreactivity |

| Sequence | polyreactivity (PSR sort gate) |
| --- | --- |
| QVRHVESGGGLVQAGGSLRLSCAASGGIFTTYAVGWYREAPGKEWELVARINSRGGRTYYADSVKGRFTISRDNAKYTVYLQMISLKPEDTGVYYCAVRNPRYFNEYDYWGQGTQVTVSS | low polyreactivity |
| QVQLVESGGGLVQAGGSLRLSCAASGRIFRYYAMGWYRQAPGKERELVAAITRGGRTNYADSVKGRFTISRDNAKNTVYLQMNSLKQEDTAFYYCAARNVFQSVHVRGGYWGQGTQVTVSS | high polyreactivity |
| QVQLVESGGGLVQAGGSLRLSCAASGFTFDFYAMGWYRQAPGKERELVAVISSSGRTYYADSVKGRFTISRDNAKNTVYLQMNSLKPEDTAVYYCAAKAKRGHTYDYWGQGTQVTVSS | high polyreactivity |
| QVQLVESGGGLVQAGGSLRLSCAASGSIYPNYTMGWYRQAPGKERQLVAAITISGGTTYYSDSVKGRFTISRDNAKNTVYLQMISLKPEDTAVYYCADYHRDRNSGFDYWGQGTQVTVSS | high polyreactivity |
| QVQLVESGGGLVQAGGSLRLSCAASGSIFRKYALGWYRQAPGKERELVAAIRSSGGSTYYADSVKGRFTISRDNAKNTVYLQMNSLKPEDTAVYYCAARYYRPSRYDYWGQGTQVTVSS | high polyreactivity |
| QGQLVESGGGLVQAGGSLRLSCAASGSIFEGYVMGWYRQAPGKERELFATISFSGGSTYYADSVKGRFTISRDNAKNTGYLQMNSLKPVDTAVYFCADSVPYKFYSVVSVRYEYWGQGTQVTVSS | low polyreactivity |
| QVQLVESGGGLVQAGGSLRLSCAASVRIFRYYVMGWYRQAPGKVRELVAAITSGTSTNFAESVKGRFTISRDNAKNTVYLQMNRLKPEDTAVFYCAVRSPRGGRTRFNSNYWGQGTQVTVSS | high polyreactivity |
| QDLLVESGGGLVQAGGSLRLSCAASGYTFGNNAMGWYRQAPGKERELVATISGGGRTKYADSVKGRFTISRDNAKNTVYLQMYSLKPEDTAVYYCNVVQTYYRGSYIYIKYGYWGQGTQVTVSS | high polyreactivity |
| QVQLLESGGGLVQAGVSHRLSCASSGFIFTYYAMGWYRQAPGKESELVASISTYGGNTNYADSVKGRFTISRDNAKNTVYIQMNSLIPEDTAVYYCAARIGNQYHTGYPTAGRKYGYWGQGTQVSVSS | high polyreactivity |
| KVQLVESGGGLVQAGGSLRLSCAPSGRTFRSNGMGWYIQAPGKERELVATISEGGGSTYYADSVKGRFTISRDNAKNTVYLEMISLKPEDSAVYFCAADKWYVLHYLDMNYWGQGTQVTVSS | high polyreactivity |
| QVQLVESGGGLVHAGGSLRLSCAACGRIFSRNAMGWYRQAPWKERELVAAITWRGGSTYYADSVKGRFTSSRDNAKNTVYLQMNSLKPEDTAVYYCNRDYRQYGYAYSGRFYWGHGTQVTVSS | high polyreactivity |
| QVQLVESGGGLVQAGGSLRLSCAASGRIFGFYTIGWYRQAPGKERELVATISWSGSGTYYADSVKGRFTISRDNAKNTVYLQMNSLKPEDTAVYYCNADWYYVGYDYWGQGTQVTVSS | low polyreactivity |
| QVQLVESGGGLVQAGGSLRLSCAASGSILLRYAMGWYRQAPGKERELVAAIRTIGASTYYADSVKGRFTISRDNAKNTVYLQMNSLKPEDTAVYYCNAYLAEVLPLGKGRLYDYWGQGTQVTVSS | low polyreactivity |
| QVQLVESGGVLVQAGVSLRLSCAASGRNFLWYVMGCYRQAPGKERELVAAISSGGRTYYADSVKGRFTSSRDNAKHTLYLQMNSLKPEDTAVYYCAAVRRYLKAAYGYWGQGTQVTVSS | low polyreactivity |
| QVQLVESGGGLVQAGGRLRISCAASGFTFDLYAMGWYRQAPGKERELVAAISWSGGSTRYADSVKGRFTISRDNAKNTVYLQMNSLKPEDTAVSYCARQPRLYFKGKLYGYWGQGTQVTVSS | high polyreactivity |
| QVQLVESGGGLVQARGSLRLSCAASGNTFVTNAIGWYRQAPGKVRELVAAINSSGGSTYYADSVKGRFTISRDNAKNTVYLQMNSLKPEDTAVYYCAADPLGITSGYGYWGQGTQVNVSS | low polyreactivity |
| QVQLVESGGGLVQAGGSLRLSCAASGIIFLNNAMGLYIQAPGKERELVAVISFIGDSTYYADSVKGRFTISRDNSKNSVYLQMNSLKPEDTAVYYCAADYYLPYWFFVGYDYWGQGTQVTVSS | low polyreactivity |
| QVQLEESGGGLVQAGGSLRLSCAASGLIFITYAMGWYRQAPGKERELVATITLRGGSTYYADSVKGRFTISRDNAKNTVYLQMNSLKPEDTAVYYCAADVGYWGRSRGYPSDDYDYWGQGTQVTVSS | low polyreactivity |
| QVQLVESGGGLVQAGGSLRLTCAASGRIFNTYAMGWYRQAPGKERELVAAITRSAGRTYYADSVKGRFTISRDNAKNTVYLQMNSLKPEDTAVYYCNAEGSSVLTGYCGYPPYWDTYDYWGQGTQVTLSS | low polyreactivity |
| QVQLVESVGGLVQAGGSLRLRCAASGRTFGVYAMGWYRQAAGKESEFVATITSRGGRTYSADSVKGRFTISRDNAKKTVYLQMNSLIPEDTAVYYCAAQVGRNGVSEYDYWGQGTQVTVSS | high polyreactivity |
| QVQLVESGGGLVQAGGSLRLSCAASGSTFSRYTMGWYRQAPGKERELVAAISKSGGSTYYADSVKGRFTISRDNAKNTVYLQMNSLKPEDTAVYYCAALVRAGTSLDYDYWGQGTEVTVSS | high polyreactivity |
